Test in all cases: cell-based or functional assay
Assay [1] addresses human GLP-1 receptor (GLP-1R) (human, UniProt P43220 24-463).
Target sequence in this assay (P43220 24-463): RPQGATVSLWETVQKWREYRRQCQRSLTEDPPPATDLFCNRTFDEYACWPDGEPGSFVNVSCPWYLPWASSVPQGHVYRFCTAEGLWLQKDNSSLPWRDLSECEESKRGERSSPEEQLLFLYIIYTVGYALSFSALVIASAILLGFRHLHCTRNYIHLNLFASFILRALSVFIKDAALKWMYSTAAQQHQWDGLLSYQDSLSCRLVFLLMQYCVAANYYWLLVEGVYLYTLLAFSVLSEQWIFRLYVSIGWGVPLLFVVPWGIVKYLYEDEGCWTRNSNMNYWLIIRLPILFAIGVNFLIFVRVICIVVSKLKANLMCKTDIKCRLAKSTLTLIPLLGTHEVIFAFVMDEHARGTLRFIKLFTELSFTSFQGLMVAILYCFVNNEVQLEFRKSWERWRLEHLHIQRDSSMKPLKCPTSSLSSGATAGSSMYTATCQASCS
Assay [2] concerns the target human glucagon receptor (GCGR) (human, UniProt P47871 26-477).
Assay [3] shares this target. This is another data set of the same source.
For assay [4], the target named is human GLP-1 receptor (GLP-1R) (human, UniProt P43220 24-463). This is another data set of the same source.
Target sequence in this assay (P43220 24-463): as above

Where no end group is shown, it is not given here. [ ]: non-standard residue; d: D form. Aib = CC(C)(N)C(=O)O

B1: Compound A102 (peptide)
peptide: YSHGTFTSDYSKWLD[Aib]KRAQEFVKWLEDE-OH
modifications: N-terminus assumed
SMILES: CC(C)C[C@H](NC(=O)[C@H](Cc1c[nH]c2ccccc12)NC(=O)[C@H](CCCCN)NC(=O)[C@@H](NC(=O)[C@H](Cc1ccccc1)NC(=O)[C@H](CCC(=O)O)NC(=O)[C@H](CCC(N)=O)NC(=O)[C@H](C)NC(=O)[C@H](CCCNC(=N)N)NC(=O)[C@H](CCCCN)NC(=O)C(C)(C)NC(=O)[C@H](CC(=O)O)NC(=O)[C@H](CC(C)C)NC(=O)[C@H](Cc1c[nH]c2ccccc12)NC(=O)[C@H](CCCCN)NC(=O)[C@H](CO)NC(=O)[C@H](Cc1ccc(O)cc1)NC(=O)[C@H](CC(=O)O)NC(=O)[C@H](CO)NC(=O)[C@@H](NC(=O)[C@H](Cc1ccccc1)NC(=O)[C@@H](NC(=O)CNC(=O)[C@H](Cc1c[nH]cn1)NC(=O)[C@H](CO)NC(=O)[C@@H](N)Cc1ccc(O)cc1)[C@@H](C)O)[C@@H](C)O)C(C)C)C(=O)N[C@@H](CCC(=O)O)C(=O)N[C@@H](CC(=O)O)C(=O)N[C@@H](CCC(=O)O)C(=O)O
Turning to B1, the “hGLP1 pEC50 (cAMP)” value in assay [1] is below 9 pEC50.

B2: Compound A93 (peptide)
peptide: WSQGTFTSDYSKYLD[Aib]KAAQEFV[Aib]WLEDEPSSGKPPPS
Turning to B2, the “hGCGR pEC50 (cAMP)” value in assay [2] was found to be 10.9 pEC50. Also, in assay [1], the “hGLP1 pEC50 (cAMP)” value was below 9 pEC50.

B3: Compound A96 (peptide)
peptide: YSQGTFTSDYSKYLD[Aib]KAAQEFV[Aib]WLEDEPSSGKPPPS
For the molecule B3, the “hGCGR pEC50 (cAMP)” value in assay [2] was found to be 13 pEC50. For the same molecule, the “hGLP1 pEC50 (cAMP)” value in assay [1] is below 9 pEC50.

B4: Compound A95 (peptide)
peptide: YSQGTFTSDYSKYLD[Aib]KAAQEFV[Aib]WLEDEPSSGAPPPS
Consider B4, for which the “hGCGR pEC50 (cAMP)” value in assay [2] was 13.3 pEC50. The “hGLP1 pEC50 (cAMP)” value in assay [1] was below 9 pEC50.

B5: Compound A97 (peptide)
peptide: YSHGTFTSDYSKYLDAARAQEFVKWLEDEPSSGAPPPS-OH
For the molecule B5, the “hGCGR pEC50 (cAMP) mean (n = 3): 11 point curve starting at 1 nM” value in assay [3] turned out to be 12.3 pEC50. In addition, the “hGLP1 pEC50 (cAMP) mean (n = 3): 11 point curve starting at 1 nM” value in assay [4] was below 9 pEC50.

B6: Compound A80 (peptide)
peptide: YSHGTFTSDYSKYLDAARAQEFVKWLEDEPKSKSPPPS-NH2
Regarding B6, in assay [2], the “hGCGR pEC50 (cAMP)” value came out at 12.5 pEC50. Also, in assay [1], the “hGLP1 pEC50 (cAMP)” value is below 9 pEC50.

B7: Compound A85 (peptide)
peptide: YSHGTFTSDYSKYLD[Aib]KRAQEFV[Aib]WLEDEPSSGKPPPS-NH2
modifications: N-terminus assumed
SMILES: CC(C)C[C@H](NC(=O)[C@H](Cc1ccc(O)cc1)NC(=O)[C@H](CCCCN)NC(=O)[C@H](CO)NC(=O)[C@H](Cc1ccc(O)cc1)NC(=O)[C@H](CC(=O)O)NC(=O)[C@H](CO)NC(=O)[C@@H](NC(=O)[C@H](Cc1ccccc1)NC(=O)[C@@H](NC(=O)CNC(=O)[C@H](Cc1c[nH]cn1)NC(=O)[C@H](CO)NC(=O)[C@@H](N)Cc1ccc(O)cc1)[C@@H](C)O)[C@@H](C)O)C(=O)N[C@@H](CC(=O)O)C(=O)NC(C)(C)C(=O)N[C@@H](CCCCN)C(=O)N[C@@H](CCCNC(=N)N)C(=O)N[C@@H](C)C(=O)N[C@@H](CCC(N)=O)C(=O)N[C@@H](CCC(=O)O)C(=O)N[C@@H](Cc1ccccc1)C(=O)N[C@H](C(=O)NC(C)(C)C(=O)N[C@@H](Cc1c[nH]c2ccccc12)C(=O)N[C@@H](CC(C)C)C(=O)N[C@@H](CCC(=O)O)C(=O)N[C@@H](CC(=O)O)C(=O)N[C@@H](CCC(=O)O)C(=O)N1CCC[C@H]1C(=O)N[C@@H](CO)C(=O)N[C@@H](CO)C(=O)NCC(=O)N[C@@H](CCCCN)C(=O)N1CCC[C@H]1C(=O)N1CCC[C@H]1C(=O)N1CCC[C@H]1C(=O)N[C@@H](CO)C(N)=O)C(C)C
Regarding B7, in assay [2], the “hGCGR pEC50 (cAMP)” value came out at 13.6 pEC50. Besides, in assay [1], the “hGLP1 pEC50 (cAMP)” value is below 9 pEC50.

B8: Compound A92 (peptide)
peptide: WSQGTFTSDYSKYLD[Aib]KAAQEFV[Aib]WLEDEPSSGAPPPS
For B8, the “hGCGR pEC50 (cAMP)” value in assay [2] was found to be 10.7 pEC50. In addition, the “hGLP1 pEC50 (cAMP)” value in assay [1] was below 9 pEC50.

B9: Compound A90 (peptide)
peptide: YSHGTFTSDYSKYLD[Aib]KAAQEFV[Aib]WLEDEPSSGKPPPS
As for B9, the “hGCGR pEC50 (cAMP)” value in assay [2] was 13.1 pEC50. In addition, the “hGLP1 pEC50 (cAMP)” value in assay [1] is below 9 pEC50.

B10: Compound A89 (peptide)
peptide: YSHGTFTSDYSKYLD[Aib]KRAQEFV[Aib]HLEDEPSSGKPPPS
On to B10, for which the “hGCGR pEC50 (cAMP)” value in assay [2] stood at 12.7 pEC50. Moreover, the “hGLP1 pEC50 (cAMP)” value in assay [1] was below 9 pEC50.

B11: Compound A88 (peptide)
peptide: YSHGTFTSDYSKYLD[Aib]KRAQEFV[Aib]WLEDEPSSGKKPPS
As for B11, the “hGCGR pEC50 (cAMP)” value in assay [2] stood at 13.8 pEC50. For the same molecule, the “hGLP1 pEC50 (cAMP)” value in assay [1] was below 9 pEC50.

B12: Compound A91 (peptide)
peptide: WSQGTFTSDYSKYLD[Aib]KRAQEFV[Aib]WLEDEPSSGKPPPS
Regarding B12, the “hGCGR pEC50 (cAMP)” value in assay [2] was 12.8 pEC50. In addition, the “hGLP1 pEC50 (cAMP)” value in assay [1] is below 9 pEC50.

B13: Compound A86 (peptide)
peptide: YSQGTFTSDYSKYLD[Aib]KRAQEFV[Aib]WLEDEPSSGKPPPS
Turning to B13, the “hGCGR pEC50 (cAMP)” value in assay [2] worked out at 13.3 pEC50. Moreover, the “hGLP1 pEC50 (cAMP)” value in assay [1] is below 9 pEC50.

B14: Compound A87 (peptide)
peptide: YSHGTFTSDYSKYLD[Aib]KRAQEFV[Aib]WLEDEKSSGKPPPS
Take B14: the “hGCGR pEC50 (cAMP)” value in assay [2] came to 13.6 pEC50. For the same molecule, in assay [1], the “hGLP1 pEC50 (cAMP)” value is below 9 pEC50.

B15: Compound A81 (peptide)
peptide: YSQGTFTSDYSKYLDSARAQEFVKWLEDEPKSKSPPPS
Take B15: in assay [2], the “hGCGR pEC50 (cAMP)” value stood at 11 pEC50. The “hGLP1 pEC50 (cAMP)” value in assay [1] was below 9 pEC50.

B16: Compound A83 (peptide)
peptide: YSHGTFTSDYSKYLDSARAQEFTKWLEDEPKSKSPPPS
As to B16, the “hGCGR pEC50 (cAMP)” value in assay [2] amounted to 10.2 pEC50. For the same molecule, the “hGLP1 pEC50 (cAMP)” value in assay [1] is below 9 pEC50.

B17: Compound A84 (peptide)
peptide: YSHGTFTSDYSKYLDSARAQEFVKHLEDEPKSKSPPPS
For B17, the “hGCGR pEC50 (cAMP)” value in assay [2] was found to be 9.4 pEC50. The “hGLP1 pEC50 (cAMP)” value in assay [1] was below 9 pEC50.

B18: Compound A82 (peptide)
peptide: YSQGTFTSDYSKYLDSARAQEFVKWLEDEPKSKAPPPS
For B18, the “hGCGR pEC50 (cAMP)” value in assay [2] amounted to 11 pEC50. In addition, in assay [1], the “hGLP1 pEC50 (cAMP)” value is below 9 pEC50.

B19: Compound A94 (peptide)
peptide: YSQGTFTSDYSKYLD[Aib]KRAQEFV[Aib]WLEDEPSSGAPPPS
Consider B19, for which the “hGCGR pEC50 (cAMP)” value in assay [2] was determined as 14.1 pEC50. For the same molecule, the “hGLP1 pEC50 (cAMP)” value in assay [1] is below 9 pEC50.

B20: Compound A98 (peptide)
peptide: YSHGTFTSDYTRLLESKRAQEFVKWLEDEPSSGAPPPS-OH
Turning to B20, the “hGCGR pEC50 (cAMP) mean (n = 3): 11 point curve starting at 1 nM” value in assay [3] came to 12.2 pEC50. Moreover, the “hGLP1 pEC50 (cAMP) mean (n = 3): 11 point curve starting at 1 nM” value in assay [4] is below 9 pEC50.

B21: Compound A101 (peptide)
peptide: YGHGTFTSDHSKYLD[Aib]KRAQEFVKWLEDE-OH
modifications: N-terminus assumed
SMILES: CC(C)C[C@H](NC(=O)[C@H](Cc1c[nH]c2ccccc12)NC(=O)[C@H](CCCCN)NC(=O)[C@@H](NC(=O)[C@H](Cc1ccccc1)NC(=O)[C@H](CCC(=O)O)NC(=O)[C@H](CCC(N)=O)NC(=O)[C@H](C)NC(=O)[C@H](CCCNC(=N)N)NC(=O)[C@H](CCCCN)NC(=O)C(C)(C)NC(=O)[C@H](CC(=O)O)NC(=O)[C@H](CC(C)C)NC(=O)[C@H](Cc1ccc(O)cc1)NC(=O)[C@H](CCCCN)NC(=O)[C@H](CO)NC(=O)[C@H](Cc1c[nH]cn1)NC(=O)[C@H](CC(=O)O)NC(=O)[C@H](CO)NC(=O)[C@@H](NC(=O)[C@H](Cc1ccccc1)NC(=O)[C@@H](NC(=O)CNC(=O)[C@H](Cc1c[nH]cn1)NC(=O)CNC(=O)[C@@H](N)Cc1ccc(O)cc1)[C@@H](C)O)[C@@H](C)O)C(C)C)C(=O)N[C@@H](CCC(=O)O)C(=O)N[C@@H](CC(=O)O)C(=O)N[C@@H](CCC(=O)O)C(=O)O
For B21, the “hGLP1 pEC50 (cAMP)” value in assay [1] was below 9 pEC50.

B22: Compound A103 (peptide)
peptide: YSHGTFTSDYSKYLD[Aib]ARAQEFV[Aib]WLEDEPSSGAPPPS-OH
modifications: N-terminus assumed
SMILES: CC(C)C[C@H](NC(=O)[C@H](Cc1ccc(O)cc1)NC(=O)[C@H](CCCCN)NC(=O)[C@H](CO)NC(=O)[C@H](Cc1ccc(O)cc1)NC(=O)[C@H](CC(=O)O)NC(=O)[C@H](CO)NC(=O)[C@@H](NC(=O)[C@H](Cc1ccccc1)NC(=O)[C@@H](NC(=O)CNC(=O)[C@H](Cc1c[nH]cn1)NC(=O)[C@H](CO)NC(=O)[C@@H](N)Cc1ccc(O)cc1)[C@@H](C)O)[C@@H](C)O)C(=O)N[C@@H](CC(=O)O)C(=O)NC(C)(C)C(=O)N[C@@H](C)C(=O)N[C@@H](CCCNC(=N)N)C(=O)N[C@@H](C)C(=O)N[C@@H](CCC(N)=O)C(=O)N[C@@H](CCC(=O)O)C(=O)N[C@@H](Cc1ccccc1)C(=O)N[C@H](C(=O)NC(C)(C)C(=O)N[C@@H](Cc1c[nH]c2ccccc12)C(=O)N[C@@H](CC(C)C)C(=O)N[C@@H](CCC(=O)O)C(=O)N[C@@H](CC(=O)O)C(=O)N[C@@H](CCC(=O)O)C(=O)N1CCC[C@H]1C(=O)N[C@@H](CO)C(=O)N[C@@H](CO)C(=O)NCC(=O)N[C@@H](C)C(=O)N1CCC[C@H]1C(=O)N1CCC[C@H]1C(=O)N1CCC[C@H]1C(=O)N[C@@H](CO)C(=O)O)C(C)C
As to B22, in assay [1], the “hGLP1 pEC50 (cAMP)” value was below 9 pEC50.

Values taken from patent US20180009871A1 (INTARCIA THERAPEUTICS, published 2018).
